Common to all, as to type: biochemical
Assay [1] is described as follows: ω-transaminase enzyme activity assay, forward direction (glutarate semialdehyde to 5-aminopentanoate), cell free extract. On the procedure:
A nucleotide sequence encoding an N-terminal His-tag was added to the genes from Chromobacterium violaceum and Rhodobacter sphaeroides encoding the ω-transaminases of SEQ ID NOs: 8 and 10 respectively (see FIG. 10) such that N-terminal HIS tagged ω-transaminases could be produced. Each of the resulting modified genes was cloned into a pET21a expression vector under control of the T7 promoter and each expression vector was transformed into a BL21[DE3] E. coli host. The resulting recombinant E. coli strains were cultivated at 37° C. in a 250 mL shake flask culture containing 50 mL LB media and antibiotic selection pressure, with shaking at 230 rpm. Each culture was induced overnight at 16° C. using 1 mM IPTG.
(§1) The pellet from each induced shake flask culture was harvested via centrifugation. Each pellet was resuspended and lysed via sonication. The cell debris was separated from the supernatant via centrifugation and the cell free extract was used immediately in enzyme activity assays.
Enzyme activity in the forward direction (i.e., glutarate semialdehyde to 5-aminopentanoate) was confirmed for the transaminase of SEQ ID NO: 10. Enzyme activity assays were performed in a buffer composed of a final concentration of 50 mM HEPES buffer (pH=7.5), 10 mM glutarate semialdehyde, 10 mM L-alanine and 100 μM pyridoxyl 5′ phosphate. Each enzyme activity assay reaction was initiated by adding a cell free extract of the ω-transaminase gene product or the empty vector control to the assay buffer containing the glutarate semialdehyde and incubated at 25° C. for 4 hours, with shaking at 250 rpm. The formation of pyruvate was quantified via RP-HPLC.

The nature of assay [2]: carboxylate reductase enzyme activity assay (5-hydroxypentanoate to 5-hydroxypentanal), NADPH consumption at 340 nm. The conditions noted are these: purified enzyme enhanced by the gene product of sfp; 1 mM ATP, 1 mM NADPH, pH 7.5, room temperature, 20 minutes; against the empty vector control; FIG. 14. The method, then: A nucleotide sequence encoding a His-tag was added to the genes from Mycobacterium marinum, Mycobacterium smegmatis, Segniliparus rugosus, Mycobacterium massiliense, and Segniliparus rotundus that encode the carboxylate reductases of SEQ ID NOs: 2-4, 6 and 7, respectively (GenBank Accession Nos. ACC40567.1, ABK71854.1, EFV11917.1, EIV11143.1, and ADG98140.1, respectively) (see FIG. 10) such that N-terminal HIS tagged carboxylate reductases could be produced. Each of the modified genes was cloned into a pET Duet expression vector alongside a sfp gene encoding a His-tagged phosphopantetheine transferase from Bacillus subtilis, both under control of the T7 promoter. Each expression vector was transformed into a BL21[DE3] E. coli host along with the expression vectors from Example 3. Each resulting recombinant E. coli strain was cultivated at 37° C. in a 250 mL shake flask culture containing 50 mL LB media and antibiotic selection pressure, with shaking at 230 rpm. Each culture was induced overnight at 37° C. using an auto-induction media. […]
Enzyme activity (i.e., 5-hydroxypentanoate to 5-hydroxypentanal) assays were performed in triplicate in a buffer composed of a final concentration of 50 mM HEPES buffer (pH=7.5), 2 mM 5-hydroxypentanal, 10 mM MgCl2, 1 mM ATP, and 1 mM NADPH. […] The consumption of NADPH was monitored by absorbance at 340 nm. […]

Assay [3] is described as follows: ω-transaminase enzyme activity assay (cadaverine to 5-aminopentanal), cell free extract. On the procedure:
A nucleotide sequence encoding an N-terminal His-tag was added to the Chromobacterium violaceum, Pseudomonas aeruginosa, Pseudomonas syringae, and Escherichia coli genes encoding the ω-transaminases of SEQ ID NOs: 8 to 10 and 12, respectively (see, FIG. 10) such that N-terminal HIS tagged ω-transaminases could be produced. The modified genes were cloned into a pET21a expression vector under the T7 promoter. Each expression vector was transformed into a BL21[DE3] E. coli host. Each resulting recombinant E. coli strain were cultivated at 37° C. in a 250 mL shake flask culture containing 50 mL LB media and antibiotic selection pressure, with shaking at 230 rpm. Each culture was induced overnight at 16° C. using 1 mM IPTG.
as §1
Enzyme activity assays in the reverse direction (i.e., cadaverine to 5-aminopentanal) were performed in a buffer composed of a final concentration of 50 mM HEPES buffer (pH=7.5), 10 mM cadaverine, 10 mM pyruvate, and 100 μM pyridoxyl 5′ phosphate. […] The formation of L-alanine was quantified via RP-HPLC.

The values below come from patent publication US20150361464A1, “METHODS, REAGENTS AND CELLS FOR BIOSYNTHESIZING COMPOUNDS” (INVISTA North America S.á r.l., priority 2014, published 2015).

B1: SEQ ID NO: 10: Pseudomonas syringae ω-transaminase (b222 says Rhodobacter sphaeroides), N-terminal HIS tagged, cell free extract (protein, listed as Pseudomonas syringae)
chain: MSANNPQTLEWQALSSEHHLAPFSDYKQLKEKGPRIITRAEGVYLWDSEGNKILDGMSGLWCVAIGYGREELADAASKQMRELPYYNLFFQTAHPPVLELAKAISDIAPEGMNHVFFTGSGSEGNDTMLRMVRHYWALKGQPNKKTIISRVNGYHGSTVAGASLGGMTYMHEQGDLPIPGVVHIPQPYWFGEGGDMTPDEFGIWAAEQLEKKILELGVENVGAFIAEPIQGAGGVIVPPDSYWPKIKEILSRYDILFAADEVICGFGRTSEWFGSDFYGLRPDMMTIAKGLTSGYVPMGGLIVRDEIVAVLNEGGDFNHGFTYSGHPVAAAVALENIRILREEKIVERVRSETAPYLQKRLRELSDHPLVGEVRGVGLLGAIELVKDKTTRERYTDKGAGMICRTFCFDNGLIMRAVGDTMIIAPPLVISFAQIDELVEKARTCLDLTLAVLQG
modifications: N-terminal His tag
Take B1: the “acceptance of glutarate semialdehyde as substrate (formation of pyruvate from L-alanine, RP-HPLC)” value in assay [1] (10 mM glutarate semialdehyde, 10 mM L-alanine, pH 7.5, 25° C., 4 hours, against the empty vector control, FIG. 16) was “accepted glutarate semialdehyde as substrate”. In addition, in assay [1] (conclusion from reverse and forward direction assays), the “acceptance of glutarate semialdehyde as substrate and synthesis of 5-aminopentanoate, concluded from reversibility of the ω-transaminase activity” value is “accepted glutarate semialdehyde as substrate and synthesized 5-aminopentanoate”.

B2: SEQ ID NO: 6: Mycobacterium massiliense carboxylate reductase, N-terminal HIS tagged (protein)
chain: MTNETNPQQEQLSRRIESLRESDPQFRAAQPDPAVAEQVLRPGLHLSEAIAALMTGYAERPALGERARELVIDQDGRTTLRLLPRFDTTTYGELWSRTTSVAAAWHHDATHPVKAGDLVATLGFTSIDYTVLDLAIMILGGVAVPLQTSAPASQWTTILAEAEPNTLAVSIELIGAAMESVRATPSIKQVVVFDYTPEVDDQREAFEAASTQLAGTGIALETLDAVIARGAALPAAPLYAPSAGDDPLALLIYTSGSTGAPKGAMHSENIVRRWWIREDVMAGTENLPMIGLNFMPMSHIMGRGTLTSTLSTGGTGYFAASSDMSTLFEDMELIRPTALALVPRVCDMVFQRFQTEVDRRLASGDTASAEAVAAEVKADIRDNLFGGRVSAVMVGSAPLSEELGEFIESCFELNLTDGYGSTEAGMVFRDGIVQRPPVIDYKLVDVPELGYFSTDKPHPRGELLLKTDGMFLGYYKRPEVTASVFDADGFYMTGDIVAELAHDNIEIIDRRNNVLKLSQGEFVAVATLEAEYANSPVVHQIYVYGSSERSYLLAVVVPTPEAVAAAKGDAAALKTTIADSLQDIAKEIQLQSYEVPRDFIIEPQPFTQGNGLLTGIAKLARPNLKAHYGPRLEQMYAEIAEQQAAELRALHGVDPDKPALETVLKAAQALLGVSSAELAADAHFTDLGGDSLSALSFSDLLRDIFAVEVPVGVIVSAANDLGGVAKFVDEQRHSGGTRPTAETVHGAGHTEIRAADLTLDKFIDEATLHAAPSLPKAAGIPHTVLLTGSNGYLGHYLALEWLERLDKTDGKLIVIVRGKNAEAAYGRLEEAFDTGDTELLAHFRSLADKHLEVLAGDIGDPNLGLDADTWQRLADTVDVIVHPAALVNHVLPYNQLFGPNVVGTAEIIKLAITTKIKPVTYLSTVAVAAYVDPTTFDEESDIRLISAVRPIDDGYANGYGNAKWAGEVLLREAHDLCGLPVAVFRSDMILAHSRYTGQLNVPDQFTRLILSLIATGIAPGSFYQAQTTGERPLAHYDGLPGDFTAEAITTLGTQVPEGSEGFVTYDCVNPHADGISLDNFVDWLIEAGYPIARIDNYTEWFTRFDTAIRGLSEKQKQHSLLPLLHAFEQPSAAENHGVVPAKRFQHAVQAAGIGPVGQDGTTDIPHLSRRLIVKYAKDLEQLGLL
modifications: N-terminal His tag; Mycobacterium massiliense
notes: Mycobacterium massiliense carboxylate reductase, N-terminal HIS tagged
Turning to B2, in assay [2], the “acceptance of 5-hydroxypentanoate as substrate (consumption of NADPH, absorbance at 340 nm)” value is listed as “accepted 5-hydroxypentanoate as substrate”.

B3: SEQ ID NO: 12: Escherichia coli ω-transaminase, N-terminal HIS tagged, cell free extract (protein, listed as Escherichia coli)
chain: MNRLPSSASALACSAHALNLIEKRTLDHEEMKALNREVIEYFKEHVNPGFLEYRKSVTAGGDYGAVEWQAGSLNTLVDTQGQEFIDCLGGFGIFNVGHRNPVVVSAVQNQLAKQPLHSQELLDPLRAMLAKTLAALTPGKLKYSFFCNSGTESVEAALKLAKAYQSPRGKFTFIATSGAFHGKSLGALSATAKSTFRKPFMPLLPGFRHVPFGNIEAMRTALNECKKTGDDVAAVILEPIQGEGGVILPPPGYLTAVRKLCDEFGALMILDEVQTGMGRTGKMFACEHENVQPDILCLAKALGGGVMPIGATIATEEVFSVLFDNPFLHTTTFGGNPLACAAALATINVLLEQNLPAQAEQKGDMLLDGFRQLAREYPDLVQEARGKGMLMAIEFVDNEIGYNFASEMFRQRVLVAGTLNNAKTIRIEPPLTLTIEQCELVIKAARKALAAMRVSVEEA
modifications: N-terminal His tag
notes: Escherichia coli ω-transaminase, N-terminal HIS tagged, cell free extract
For B3, in assay [3] (10 mM cadaverine, 10 mM pyruvate, pH 7.5, 25° C., 4 hours, against the empty vector control, FIG. 11), the “acceptance of cadaverine as substrate (formation of L-alanine from pyruvate, RP-HPLC)” value is listed as “accepted cadaverine as substrate”. Besides, the “acceptance of 5-aminopentanal as substrate forming cadaverine, concluded from reversibility of the ω-transaminase activity” value in assay [3] (conclusion given reversibility (Example 1)) was “accept 5-aminopentanal as substrate and form cadaverine”.

B4: SEQ ID NO: 7: Segniliparus rotundus carboxylate reductase, N-terminal HIS tagged (protein, listed as Segniliparus rotundus)
chain: MTQSHTQGPQASAAHSRLARRAAELLATDPQAAATLPDPEVVRQATRPGLRLAERVDAILSGYADRPALGQRSFQTVKDPITGRSSVELLPTFDTITYRELRERATAIASDLAHHPQAPAKPGDFLASIGFISVDYVAIDIAGVFAGLTAVPLQTGATLATLTAITAETAPTLFAASIEHLPTAVDAVLATPSVRRLLVFDYRAGSDEDREAVEAAKRKIADAGSSVLVDVLDEVIARGKSAPKAPLPPATDAGDDSLSLLIYTSGSTGTPKGAMYPERNVAHFWGGVWAAAFDEDAAPPVPAINITFLPLSHVASRLSLMPTLARGGLMHFVAKSDLSTLFEDLKLARPTNLFLVPRVVEMLYQHYQSELDRRGVQDGTREAEAVKDDLRTGLLGGRILTAGFGSAPLSAELAGFIESLLQIHLVDGYGSTEAGPVWRDGYLVKPPVTDYKLIDVPELGYFSTDSPHPRGELAIKTQTILPGYYKRPETTAEVFDEDGFYLTGDVVAQIGPEQFAYVDRRKNVLKLSQGEFVTLAKLEAAYSSSPLVRQLFVYGSSERSYLLAVIVPTPDALKKFGVGEAAKAALGESLQKIARDEGLQSYEVPRDFIIETDPFTVENGLLSDARKSLRPKLKEHYGERLEAMYKELADGQANELRDIRRGVQQRPTLETVRRAAAAMLGASAAEIKPDAHFTDLGGDSLSALTFSNFLHDLFEVDVPVGVIVSAANTLGSVAEHIDAQLAGGRARPTFATVHGKGSTTIKASDLTLDKFIDEQTLEAAKHLPKPADPPRTVLLTGANGWLGRFLALEWLERLAPAGGKLITIVRGKDAAQAKARLDAAYESGDPKLAGHYQDLAATTLEVLAGDFSEPRLGLDEATWNRLADEVDFISHPGALVNHVLPYNQLFGPNVAGVAEIIKLAITTRIKPVTYLSTVAVAAGVEPSALDEDGDIRTVSAERSVDEGYANGYGNSKWGGEVLLREAHDRTGLPVRVFRSDMILAHQKYTGQVNATDQFTRLVQSLLATGLAPKSFYELDAQGNRQRAHYDGIPVDFTAESITTLGGDGLEGYRSYNVFNPHRDGVGLDEFVDWLIEAGHPITRIDDYDQWLSRFETSLRGLPESKRQASVLPLLHAFARPGPAVDGSPFRNTVFRTDVQKAKIGAEHDIPHLGKALVLKYADDIKQLGLL
modifications: N-terminal His tag
notes: Segniliparus rotundus carboxylate reductase, N-terminal HIS tagged
On to B4, for which the “acceptance of 5-hydroxypentanoate as substrate (consumption of NADPH, absorbance at 340 nm)” value in assay [2] was “accepted 5-hydroxypentanoate as substrate”.
